Measured values as given in patent publication US20060083715A1 (published 2006).

Biological target: T1, Interferon type I receptors on HeLa cells (UniProt P17181 28-557; P48551 27-515, limits assumed)
T1 sequence (looked up) 1: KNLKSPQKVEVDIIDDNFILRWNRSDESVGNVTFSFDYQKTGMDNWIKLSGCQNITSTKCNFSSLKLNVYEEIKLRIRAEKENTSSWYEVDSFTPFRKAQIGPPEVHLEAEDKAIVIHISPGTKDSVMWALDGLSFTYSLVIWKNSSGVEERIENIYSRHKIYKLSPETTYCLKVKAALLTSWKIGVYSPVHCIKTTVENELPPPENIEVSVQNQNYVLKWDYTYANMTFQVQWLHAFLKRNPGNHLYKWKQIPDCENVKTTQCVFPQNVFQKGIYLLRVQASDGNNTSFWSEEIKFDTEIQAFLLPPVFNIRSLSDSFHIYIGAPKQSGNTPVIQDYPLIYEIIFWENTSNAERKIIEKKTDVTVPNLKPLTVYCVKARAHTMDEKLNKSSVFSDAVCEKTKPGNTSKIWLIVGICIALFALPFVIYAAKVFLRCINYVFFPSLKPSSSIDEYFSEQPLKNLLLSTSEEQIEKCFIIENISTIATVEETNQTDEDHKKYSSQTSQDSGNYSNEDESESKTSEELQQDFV
T1 sequence (looked up) 2: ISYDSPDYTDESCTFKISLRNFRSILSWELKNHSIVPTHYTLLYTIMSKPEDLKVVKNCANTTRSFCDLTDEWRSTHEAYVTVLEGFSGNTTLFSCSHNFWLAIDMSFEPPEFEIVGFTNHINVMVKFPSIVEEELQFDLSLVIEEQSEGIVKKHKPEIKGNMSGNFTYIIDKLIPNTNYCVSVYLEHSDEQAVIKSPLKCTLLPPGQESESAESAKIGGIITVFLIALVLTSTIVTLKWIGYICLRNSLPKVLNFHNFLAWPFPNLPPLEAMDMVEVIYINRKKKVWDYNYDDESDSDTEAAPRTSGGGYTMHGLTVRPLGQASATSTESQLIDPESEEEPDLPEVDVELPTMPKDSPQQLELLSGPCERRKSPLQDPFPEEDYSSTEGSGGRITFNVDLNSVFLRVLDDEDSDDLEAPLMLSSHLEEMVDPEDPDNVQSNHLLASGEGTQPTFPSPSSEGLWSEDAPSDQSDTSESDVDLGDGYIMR
Test: cell-based or functional assay

specific activity relative to wild-type human IFNB (primary assay): ~2 fold of wild-type human IFNB
B1: [F111N+R113T] human IFNB variant (ligand)
chain: MSYNLLGFLQRSSNFQCQKLLWQLNGRLEYCLKDRMNFDIPEEIKQLQQFQKEDAALTIYEMLQNIFAIFRQDSSSTGWNETIVENLLANVYHQINHLKTVLEEKLEKEDNTTGKLMSSLHLKRYYGRILHYLKAKEYSHCAWTIVRVEILRNFYFINRLTGYLRN
modifications: introduced in vivo N-glycosylation site at position 111
